Source: paper PMC9482650, “Quantitative fragmentomics allow affinity mapping of interactomes” (Nature Communications, 2022)

T1: APBA2_1, Q99767
T1 sequence (Q99767 563-664, limits assumed, looked up): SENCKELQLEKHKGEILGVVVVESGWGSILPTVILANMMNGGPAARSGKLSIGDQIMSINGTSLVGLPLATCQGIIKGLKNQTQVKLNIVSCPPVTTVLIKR

T2: DFNB31_2, Q9P202
T2 sequence (Q9P202 274-371, limits assumed, looked up): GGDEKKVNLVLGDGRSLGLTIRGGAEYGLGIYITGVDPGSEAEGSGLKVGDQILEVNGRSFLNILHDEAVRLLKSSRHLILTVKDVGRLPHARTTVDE

T3: ARHGAP21, Q5T5U3
T3 sequence (Q5T5U3 45-169, limits assumed, looked up): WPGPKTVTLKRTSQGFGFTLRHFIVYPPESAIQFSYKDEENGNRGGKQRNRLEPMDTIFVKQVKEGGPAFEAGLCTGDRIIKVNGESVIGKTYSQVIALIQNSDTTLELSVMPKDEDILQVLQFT

T4: PTPN13_1, Q12923
T4 sequence (Q12923 1088-1188, limits assumed, looked up): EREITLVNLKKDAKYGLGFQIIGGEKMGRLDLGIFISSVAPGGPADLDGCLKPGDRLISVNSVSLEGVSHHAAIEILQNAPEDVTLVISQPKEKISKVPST

T5: GRIP1_7, Q9Y3R0
T5 sequence (Q9Y3R0 999-1096, limits assumed, looked up): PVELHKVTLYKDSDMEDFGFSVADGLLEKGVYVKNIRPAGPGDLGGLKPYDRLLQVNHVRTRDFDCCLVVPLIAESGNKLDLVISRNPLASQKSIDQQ

T6: DLG3_1, Q92796
T6 sequence (Q92796 125-227, limits assumed, looked up): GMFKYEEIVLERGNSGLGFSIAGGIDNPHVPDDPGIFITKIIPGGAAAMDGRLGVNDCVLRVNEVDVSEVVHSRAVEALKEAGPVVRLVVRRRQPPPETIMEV

T7: NHERF3_4, Q5T2W1
T7 sequence (Q5T2W1 373-468, limits assumed, looked up): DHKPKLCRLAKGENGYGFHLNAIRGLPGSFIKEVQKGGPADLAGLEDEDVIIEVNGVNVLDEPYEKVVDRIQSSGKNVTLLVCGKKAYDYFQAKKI

T8: NHERF3_1, Q5T2W1
T8 sequence (Q5T2W1 4-100, limits assumed, looked up): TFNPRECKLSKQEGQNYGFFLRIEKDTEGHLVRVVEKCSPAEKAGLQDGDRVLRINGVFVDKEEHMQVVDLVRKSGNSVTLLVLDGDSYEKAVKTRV

T9: SIPA1L2, Q9P2F8
T9 sequence (Q9P2F8 945-1036, limits assumed, looked up): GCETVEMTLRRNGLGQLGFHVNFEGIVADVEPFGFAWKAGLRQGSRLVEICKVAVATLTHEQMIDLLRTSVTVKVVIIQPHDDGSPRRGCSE

T10: APBA2_2, Q99767
T10 sequence (Q99767 654-744, limits assumed, looked up): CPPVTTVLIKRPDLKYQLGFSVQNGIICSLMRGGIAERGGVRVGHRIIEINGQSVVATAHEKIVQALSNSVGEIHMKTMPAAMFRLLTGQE

T11: NHERF3_3, Q5T2W1
T11 sequence (Q5T2W1 238-333, limits assumed, looked up): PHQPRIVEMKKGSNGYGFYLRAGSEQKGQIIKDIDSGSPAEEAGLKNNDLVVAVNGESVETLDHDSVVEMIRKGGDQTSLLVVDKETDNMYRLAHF

T12: LRRC7, Q96NW7
T12 sequence (Q96NW7 1440-1537, limits assumed, looked up): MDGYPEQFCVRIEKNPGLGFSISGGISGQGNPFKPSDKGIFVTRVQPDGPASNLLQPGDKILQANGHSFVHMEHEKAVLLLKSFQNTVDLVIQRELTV


How the values were obtained:
Experiment in all cases: holdup assay
Set-up in all cases: key: below the threshold = too weak to quantify, mostly under pKd 3.1 to 4
Conditions in all cases: plain residues with an end cap or a label only (N-terminal biotin on a linker: ado-ado)
APBA2_1, Q99767 = molecular target: T1, APBA2_1, Q99767
DLG2_2, Q15700 = molecular target: DLG2_2, Q15700
DFNB31_2, Q9P202 = molecular target: T2, DFNB31_2, Q9P202
IL16_4, Q14005 = molecular target: IL16_4, Q14005
ARHGAP21, Q5T5U3 = molecular target: T3, ARHGAP21, Q5T5U3
Inadl_2, Q8NI35 = molecular target: Inadl_2, Q8NI35
PTPN13_1, Q12923 = molecular target: T4, PTPN13_1, Q12923
GRIP1_7, Q9Y3R0 = molecular target: T5, GRIP1_7, Q9Y3R0
MAGI2_3, Q86UL8 = molecular target: MAGI2_3, Q86UL8
HTRA2, O43464 = molecular target: HTRA2, O43464
DLG3_1, Q92796 = molecular target: T6, DLG3_1, Q92796
NHERF3_4, Q5T2W1 = molecular target: T7, NHERF3_4, Q5T2W1
NHERF3_1, Q5T2W1 = molecular target: T8, NHERF3_1, Q5T2W1
SIPA1L2, Q9P2F8 = molecular target: T9, SIPA1L2, Q9P2F8
Inadl_5, Q8NI35 = molecular target: Inadl_5, Q8NI35
GRIP2_7, Q9C0E4 = molecular target: GRIP2_7, Q9C0E4
GRID2IP_1, A4D2P6 = molecular target: GRID2IP_1, A4D2P6
GIPC2, Q8TF65 = molecular target: GIPC2, Q8TF65
APBA2_2, Q99767 = molecular target: T10, APBA2_2, Q99767
NHERF3_3, Q5T2W1 = molecular target: T11, NHERF3_3, Q5T2W1
MAGI2_2, Q86UL8 = molecular target: MAGI2_2, Q86UL8
DLG1_3, Q12959 = molecular target: DLG1_3, Q12959
DLG1_2, Q12959 = molecular target: DLG1_2, Q12959
LRRC7, Q96NW7 = molecular target: T12, LRRC7, Q96NW7
FRMPD2_1, Q68DX3 = molecular target: FRMPD2_1, Q68DX3
FRMPD4, Q14CM0 = molecular target: FRMPD4, Q14CM0
Chain of FRMPD4, Q14CM0 (Q14CM0 67-160): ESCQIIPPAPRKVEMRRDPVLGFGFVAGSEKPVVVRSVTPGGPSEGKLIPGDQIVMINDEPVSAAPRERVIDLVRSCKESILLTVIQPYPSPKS

Chain of FRMPD2_1, Q68DX3 (Q68DX3 770-861): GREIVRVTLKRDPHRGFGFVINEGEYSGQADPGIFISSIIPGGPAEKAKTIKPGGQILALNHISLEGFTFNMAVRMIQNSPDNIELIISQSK
Chain of IL16_4, Q14005 (Q14005 1229-1329): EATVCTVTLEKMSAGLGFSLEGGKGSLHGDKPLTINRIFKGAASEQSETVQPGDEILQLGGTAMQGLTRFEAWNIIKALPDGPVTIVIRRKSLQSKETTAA
Chain of MAGI2_2, Q86UL8 (Q86UL8 410-522): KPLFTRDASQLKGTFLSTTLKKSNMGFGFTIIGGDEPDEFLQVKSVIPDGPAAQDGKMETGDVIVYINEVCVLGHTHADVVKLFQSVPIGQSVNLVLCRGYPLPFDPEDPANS
Chain of GRID2IP_1, A4D2P6 (A4D2P6 1-87): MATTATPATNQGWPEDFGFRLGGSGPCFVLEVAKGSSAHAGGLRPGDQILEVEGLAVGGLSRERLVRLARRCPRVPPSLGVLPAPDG
Chain of HTRA2, O43464 (O43464 355-458): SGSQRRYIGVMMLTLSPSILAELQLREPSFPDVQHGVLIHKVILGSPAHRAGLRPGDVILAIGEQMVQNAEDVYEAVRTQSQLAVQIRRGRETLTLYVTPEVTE
Chain of GRIP2_7, Q9C0E4 (Q9C0E4 934-1023): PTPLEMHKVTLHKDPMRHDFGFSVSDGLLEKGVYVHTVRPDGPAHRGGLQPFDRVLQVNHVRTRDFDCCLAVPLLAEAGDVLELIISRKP
Chain of GIPC2, Q8TF65 (Q8TF65 112-203): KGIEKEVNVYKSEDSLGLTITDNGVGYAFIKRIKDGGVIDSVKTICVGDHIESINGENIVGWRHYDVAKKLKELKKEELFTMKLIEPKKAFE
Chain of DLG2_2, Q15700 (Q15700 189-283): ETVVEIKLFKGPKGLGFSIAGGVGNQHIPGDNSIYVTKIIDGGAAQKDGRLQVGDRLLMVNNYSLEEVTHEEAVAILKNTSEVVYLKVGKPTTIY
Chain of DLG1_3, Q12959 (Q12959 457-571): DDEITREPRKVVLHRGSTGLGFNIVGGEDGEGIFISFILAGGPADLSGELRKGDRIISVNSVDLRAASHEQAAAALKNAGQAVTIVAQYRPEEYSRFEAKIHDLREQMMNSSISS
Chain of Inadl_2, Q8NI35 (Q8NI35 238-335): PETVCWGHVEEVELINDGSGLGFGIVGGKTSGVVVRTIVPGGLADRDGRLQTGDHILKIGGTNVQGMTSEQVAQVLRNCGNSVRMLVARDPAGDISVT
Chain of MAGI2_3, Q86UL8 (Q86UL8 600-682): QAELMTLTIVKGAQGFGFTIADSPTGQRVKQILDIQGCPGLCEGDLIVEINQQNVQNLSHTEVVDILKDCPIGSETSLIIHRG
Chain of DLG1_2, Q12959 (Q12959 314-412): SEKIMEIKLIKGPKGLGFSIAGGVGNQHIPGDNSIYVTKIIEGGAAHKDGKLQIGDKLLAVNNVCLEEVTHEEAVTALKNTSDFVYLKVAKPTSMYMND
Chain of Inadl_5, Q8NI35 (Q8NI35 673-780): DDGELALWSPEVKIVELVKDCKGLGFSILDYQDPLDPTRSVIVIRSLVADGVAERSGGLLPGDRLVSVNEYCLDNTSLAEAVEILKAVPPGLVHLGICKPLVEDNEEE

| Binder | pKd (APBA2_1, Q99767) | pKd (DLG2_2, Q15700) | pKd (DFNB31_2, Q9P202) | pKd (IL16_4, Q14005) | pKd (ARHGAP21, Q5T5U3) | pKd (Inadl_2, Q8NI35) | pKd (PTPN13_1, Q12923) | pKd (GRIP1_7, Q9Y3R0) | pKd (MAGI2_3, Q86UL8) | pKd (HTRA2, O43464) | pKd (DLG3_1, Q92796) | pKd (NHERF3_4, Q5T2W1) | pKd (NHERF3_1, Q5T2W1) | pKd (SIPA1L2, Q9P2F8) | pKd (Inadl_5, Q8NI35) | pKd (GRIP2_7, Q9C0E4) | pKd (GRID2IP_1, A4D2P6) | pKd (GIPC2, Q8TF65) | pKd (APBA2_2, Q99767) | pKd (NHERF3_3, Q5T2W1) | also measured |
| --- | --- | --- | --- | --- | --- | --- | --- | --- | --- | --- | --- | --- | --- | --- | --- | --- | --- | --- | --- | --- | --- |
| KSRPENGTVC [TMEM178B, H3BS89] | below the threshold | below the threshold | below the threshold | below the threshold | 4.14 | below the threshold | 3.59 | below the threshold | below the threshold | below the threshold | below the threshold | below the threshold | 3.62 | below the threshold | below the threshold | below the threshold | below the threshold | below the threshold | below the threshold | below the threshold | pKd (MAGI2_2, Q86UL8): below the threshold; pKd (DLG1_3, Q12959): below the threshold; pKd (DLG1_2, Q12959): below the threshold; pKd (LRRC7, Q96NW7): below the threshold; pKd (FRMPD2_1, Q68DX3): below the threshold; pKd (FRMPD4, Q14CM0): 3.49 |
| TNSKQGETTV [FZD1, Q9UP38] | below the threshold | 4.82 | below the threshold | 3.68 | 3.93 | below the threshold | below the threshold | below the threshold | 3.83 | 3.55 | 4.37 | below the threshold | below the threshold | below the threshold | 3.5 | below the threshold | 3.66 | 4.18 | below the threshold | below the threshold | pKd (MAGI2_2, Q86UL8): 4.38; pKd (DLG1_3, Q12959): 4.13; pKd (DLG1_2, Q12959): 5.09; pKd (LRRC7, Q96NW7): below the threshold; pKd (FRMPD2_1, Q68DX3): 3.79; pKd (FRMPD4, Q14CM0): below the threshold |
| IQISELETNV [SLC1A7, O00341] | below the threshold | 4.56 | below the threshold | below the threshold | 3.98 | below the threshold | below the threshold | below the threshold | 3.96 | below the threshold | 3.91 | below the threshold | 3.82 | below the threshold | below the threshold | below the threshold | below the threshold | 3.86 | below the threshold | below the threshold | pKd (MAGI2_2, Q86UL8): below the threshold; pKd (DLG1_3, Q12959): 3.57; pKd (DLG1_2, Q12959): 4.91; pKd (LRRC7, Q96NW7): below the threshold; pKd (FRMPD2_1, Q68DX3): below the threshold; pKd (FRMPD4, Q14CM0): 3.56 |
| QQGLLPHSSC [TYRO3, Q06418] | below the threshold | below the threshold | below the threshold | below the threshold | 4 | below the threshold | below the threshold | below the threshold | below the threshold | below the threshold | below the threshold | below the threshold | below the threshold | below the threshold | below the threshold | below the threshold | below the threshold | 3.53 | below the threshold | below the threshold | pKd (MAGI2_2, Q86UL8): below the threshold; pKd (DLG1_3, Q12959): below the threshold; pKd (DLG1_2, Q12959): below the threshold; pKd (LRRC7, Q96NW7): below the threshold; pKd (FRMPD2_1, Q68DX3): below the threshold; pKd (FRMPD4, Q14CM0): below the threshold |
